Reference: PMC9440123, “Rtt105 regulates RPA function by configurationally stapling the flexible domains” (Nature Communications, 2022)
Numbering of substitutions follows the chain as printed. Names and notes keep the numbering of the source.

B1: Rtt105^Cy5 (Rtt105^C13S labeled with Cy5 on Cys-12) (natural protein, S. cerevisiae, UniProt P40063 1-208, looked up)
chain: MYSNHNLNSDDCSFDWNEEKAAELQRTGVSFDRSLTPQSLRTSTRRLSEENKQQSGTMHIDTSPSVVSDIISSRRDRSQDFFGPHSSSPIAPSERQRADQRSRLESMRLTRRRDKMTKVRGGLEKMEEMIMQGEHLREMQRLKQEAQKNALPSDMAEYMEWQNNEDLEDDELLAFIEKQETYKNELEHFLNNANKNVYENNSYPNSHT
modifications: Cy5 (maleimide chemistry) on Cys-12
notes: Rtt105, S. cerevisiae, single-Cys version; also called Cy5-labeled Rtt105; fluorescent Rtt105; source: E. coli, purified similar to the wild-type protein, labeled with Cy5-maleimide
B2: (dT)97 (ssDNA)
DNA: TTTTTTTTTTTTTTTTTTTTTTTTTTTTTTTTTTTTTTTTTTTTTTTTTTTTTTTTTTTTTTTTTTTTTTTTTTTTTTTTTTTTTTTTTTTTTTTTT
B3: F-A-B-DBD-A^MB543 (domain or fragment)
chain: MSSVQLSRGDFHSIFTNKQRYDNPTGGVYQVYNTRKSDGANSNRKNLIMISDGIYHMKALLRNQAASKFQSMELQRGDIIRVIIAEPAIVRERKKYVLLVDDFELVQSRADMVNQTSTFLDNYFSEHPNETLKDEDITDSGNVANQTNASNAGVPDMLHSNSNLNANERKFANENPNSQKTRPIFAIEQLSPYQNVWTIKARVSYKGEIKTWHNQRGDGKLFNVNFLDTSGEIRATAFNDFATKFNEILQEGKVYYVSKAKLQPAKPQFTNLTHPYELNLDRDTVIEECFDESNVPKTHFNFIKLDAIQNQEVNSNVDVLGIIQTINPHFELTSRAGKKFDRRDITIVDDSGFSISVGLWNQQALDFNLPEGSVAAIKGVRVTDFGGKSLSMGFSSTLIPNPEIPEAYALKGWYDSKGRNANFITL
modifications: 4-azidophenylalanine (4AZP) in DBD-A carrying the MB543 fluorophore; position not given
B4: Regulator of Ty1 Transposition 105 (Rtt105) (natural protein, S. cerevisiae, UniProt P40063 1-208, looked up)
chain: B1 chain with S13C
notes: Rtt105, S. cerevisiae, a 24 kDa protein; RSF-Duet1 plasmid; also called Rtt105^WT; unlabeled Rtt105

Columns and labels:
[1] = biological target: hRPA;RPAIN (human;human, UniProt P27694;P15927;P35244;Q86UA6 1-616;1-270;1-121;1-219, |); assay: fluorescence anisotropy; 20 nM DNA; stoichiometric; hRPA:RPAIN 1:2; EMSA: 25 mM Tris-Cl pH 7.5, 200 mM NaCl, 5 mM MgCl2, 5% glycerol, 0.05% Tween-20, 25 C; anisotropy/FRET: 30 mM HEPES pH 7.8, 100 mM KCl, 6% glycerol, 5 mM MgCl2, 1 mM bME, 23 C (stopped flow 25 C); details: protein: recombinant;recombinant; tags: ;N-terminal SUMO tag removed; copies: 1;1;1;2; label: 5'-FAM
Sequence of hRPA;RPAIN (P27694 whole entry, chain 1 of 4): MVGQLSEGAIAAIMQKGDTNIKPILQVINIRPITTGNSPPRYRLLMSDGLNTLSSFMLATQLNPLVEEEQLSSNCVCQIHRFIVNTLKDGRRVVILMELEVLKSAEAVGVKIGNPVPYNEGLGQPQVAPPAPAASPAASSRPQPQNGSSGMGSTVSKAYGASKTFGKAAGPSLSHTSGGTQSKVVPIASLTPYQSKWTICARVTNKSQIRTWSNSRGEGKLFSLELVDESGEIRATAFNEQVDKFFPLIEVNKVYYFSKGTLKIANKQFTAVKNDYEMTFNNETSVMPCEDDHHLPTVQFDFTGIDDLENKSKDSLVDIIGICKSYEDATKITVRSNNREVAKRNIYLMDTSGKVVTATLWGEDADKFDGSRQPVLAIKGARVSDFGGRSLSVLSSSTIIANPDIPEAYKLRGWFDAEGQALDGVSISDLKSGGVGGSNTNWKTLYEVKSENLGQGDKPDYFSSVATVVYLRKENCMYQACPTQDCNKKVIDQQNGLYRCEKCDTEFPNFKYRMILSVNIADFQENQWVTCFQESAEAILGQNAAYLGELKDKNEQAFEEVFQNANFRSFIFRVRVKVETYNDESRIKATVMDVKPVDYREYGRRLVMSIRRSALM
Sequence of hRPA;RPAIN (P15927 whole entry, chain 2 of 4): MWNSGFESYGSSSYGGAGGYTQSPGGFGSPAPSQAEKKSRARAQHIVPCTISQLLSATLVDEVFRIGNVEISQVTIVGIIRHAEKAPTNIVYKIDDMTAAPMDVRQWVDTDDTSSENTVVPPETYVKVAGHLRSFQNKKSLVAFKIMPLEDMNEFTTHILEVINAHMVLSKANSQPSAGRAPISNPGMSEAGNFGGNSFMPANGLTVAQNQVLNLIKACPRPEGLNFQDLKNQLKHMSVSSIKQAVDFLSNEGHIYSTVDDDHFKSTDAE
Sequence of hRPA;RPAIN (P35244 whole entry, chain 3 of 4): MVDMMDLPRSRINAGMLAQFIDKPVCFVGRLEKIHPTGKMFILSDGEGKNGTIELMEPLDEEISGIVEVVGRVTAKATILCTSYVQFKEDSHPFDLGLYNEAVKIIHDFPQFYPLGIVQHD
Sequence of hRPA;RPAIN (Q86UA6 whole entry, chain 4 of 4): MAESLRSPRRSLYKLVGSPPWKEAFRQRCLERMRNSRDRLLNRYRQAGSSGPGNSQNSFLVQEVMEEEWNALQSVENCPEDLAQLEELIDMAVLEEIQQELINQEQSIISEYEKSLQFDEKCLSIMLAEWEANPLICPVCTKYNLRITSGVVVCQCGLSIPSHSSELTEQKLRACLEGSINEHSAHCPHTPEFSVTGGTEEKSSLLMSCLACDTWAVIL

[2] = biological target: hRPA (human, UniProt P27694;P15927;P35244 1-616;1-270;1-121); assay: fluorescence anisotropy; 20 nM DNA; stoichiometric; no RPAIN; EMSA: 25 mM Tris-Cl pH 7.5, 200 mM NaCl, 5 mM MgCl2, 5% glycerol, 0.05% Tween-20, 25 C; anisotropy/FRET: 30 mM HEPES pH 7.8, 100 mM KCl, 6% glycerol, 5 mM MgCl2, 1 mM bME, 23 C (stopped flow 25 C); details: protein: recombinant; copies: 1;1;1; label: 5'-FAM
Sequence of hRPA (P27694 whole entry, chain 1 of 3): as the sequence (P27694 whole entry, chain 1 of 4) above
Sequence of hRPA (P15927 whole entry, chain 2 of 3): as the sequence (P15927 whole entry, chain 2 of 4) above
Sequence of hRPA (P35244 whole entry, chain 3 of 3): as the sequence (P35244 whole entry, chain 3 of 4) above

[3] = biological target: T1, Replication Protein A (RPA), S. cerevisiae heterotrimer of RPA70, RPA32 and RPA14 (S. cerevisiae, UniProt P22336 1-621; P26754 1-273; P26755 1-122); assay: AUC; sedimentation velocity as a14; Rtt105^Cy5, RPA and Rad52 mixed in equimolar concentrations, no ssDNA; 280 nm and 650 nm; details: both partners purified
T1 construct: RPA70 (Rfa1), large subunit of S. cerevisiae RPA; holds OB-F, DBD-A, DBD-B and DBD-C; RPA32 (Rfa2), middle subunit of S. cerevisiae RPA; holds DBD-D and the winged-helix domain; RPA14 (Rfa3), small subunit of S. cerevisiae RPA; holds OB-E; also called yeast RPA; unlabeled RPA; copies: + +
T1 sequence (P26754 whole entry, chain 2 of 2, the tested form may be a part): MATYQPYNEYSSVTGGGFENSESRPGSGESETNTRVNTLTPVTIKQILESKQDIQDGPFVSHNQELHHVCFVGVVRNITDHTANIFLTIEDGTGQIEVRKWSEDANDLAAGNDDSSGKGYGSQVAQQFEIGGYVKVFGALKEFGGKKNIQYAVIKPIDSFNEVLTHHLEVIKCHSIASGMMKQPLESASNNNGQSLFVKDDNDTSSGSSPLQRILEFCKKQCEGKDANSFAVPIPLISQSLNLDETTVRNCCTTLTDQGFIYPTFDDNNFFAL
T1 sequence (P26755 whole entry, chain 3 of 2, the tested form may be a part): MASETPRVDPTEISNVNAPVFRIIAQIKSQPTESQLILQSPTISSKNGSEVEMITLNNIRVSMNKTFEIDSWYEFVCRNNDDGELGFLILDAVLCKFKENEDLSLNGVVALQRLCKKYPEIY

[4] = biological target: RPA-DBD-D^MB543 (S. cerevisiae) (UniProt P22336); assay: optical tweezers with confocal fluorescence (C-trap); Rtt105^Cy5-RPA premixed 1:1, incubated with stretched lambda ssDNA, then moved to a buffer channel; 30 mM HEPES pH 7.8, 100 mM KCl, 6% glycerol, 5 mM MgCl2
[5] = biological target: RPA-DBD-A^Cy3 (S. cerevisiae) (UniProt P22336); assay: FRET or BRET; stopped-flow FRET, Cy3 excited at 535 nm, Cy5 emission; 100 nM each of RPA^Cy3 and Rtt105^Cy5; 25 °C; RPA reaction buffer; no DNA
[6] = biological target: RPA-DBD-D^Cy3 (S. cerevisiae) (UniProt P22336); assay: as above
[7] = biological target: RPA-DBD-A-Cy5;Rtt105 (Saccharomyces cerevisiae;Saccharomyces …, UniProt P22336;P26754;P26755;P40063 1-621;1-273;1-122;1-208, |); assay: stopped-flow FRET; with Rtt105; kobs1 15, kobs2 1.9 s-1; EMSA: 25 mM Tris-Cl pH 7.5, 200 mM NaCl, 5 mM MgCl2, 5% glycerol, 0.05% Tween-20, 25 C; anisotropy/FRET: 30 mM HEPES pH 7.8, 100 mM KCl, 6% glycerol, 5 mM MgCl2, 1 mM bME, 23 C (stopped flow 25 C); details: protein: recombinant;recombinant; tags: Cy5 on DBD-A via 4AZP;; copies: 1;1;1;1; label: 5'-Cy3
Sequence of RPA-DBD-A-Cy5;Rtt105 (P26754 whole entry, chain 2 of 2): as the sequence (P26754 whole entry, chain 2 of 2, the tested form may be a part) above
Sequence of RPA-DBD-A-Cy5;Rtt105 (P26755 whole entry, chain 3 of 2): as the sequence (P26755 whole entry, chain 3 of 2, the tested form may be a part) above

[8] = biological target: RPA-DBD-A-Cy5 (Saccharomyces cerevisiae, UniProt P22336;P26754;P26755 1-621;1-273;1-122); assay: stopped-flow FRET; no Rtt105; kobs1 18.2, kobs2 2.7 s-1; EMSA: 25 mM Tris-Cl pH 7.5, 200 mM NaCl, 5 mM MgCl2, 5% glycerol, 0.05% Tween-20, 25 C; anisotropy/FRET: 30 mM HEPES pH 7.8, 100 mM KCl, 6% glycerol, 5 mM MgCl2, 1 mM bME, 23 C (stopped flow 25 C); details: protein: recombinant; tags: Cy5 on DBD-A via 4AZP; copies: 1;1;1; label: 5'-Cy3
Sequence of RPA-DBD-A-Cy5 (P26754 whole entry, chain 2 of 2): as the sequence (P26754 whole entry, chain 2 of 2, the tested form may be a part) above
Sequence of RPA-DBD-A-Cy5 (P26755 whole entry, chain 3 of 2): as the sequence (P26755 whole entry, chain 3 of 2, the tested form may be a part) above

[9] = biological target: RPA-DBD-D-Cy5 (Saccharomyces cerevisiae, UniProt P22336;P26754;P26755 1-621;1-273;1-122); assay: stopped-flow FRET; no Rtt105; kobs1 100.3, kobs2 16, kobs3 1.4 s-1; EMSA: 25 mM Tris-Cl pH 7.5, 200 mM NaCl, 5 mM MgCl2, 5% glycerol, 0.05% Tween-20, 25 C; anisotropy/FRET: 30 mM HEPES pH 7.8, 100 mM KCl, 6% glycerol, 5 mM MgCl2, 1 mM bME, 23 C (stopped flow 25 C); details: protein: recombinant; tags: Cy5 on DBD-D via 4AZP; copies: 1;1;1; label: 3'-Cy3
Sequence of RPA-DBD-D-Cy5 (P26754 whole entry, chain 2 of 2): as the sequence (P26754 whole entry, chain 2 of 2, the tested form may be a part) above
Sequence of RPA-DBD-D-Cy5 (P26755 whole entry, chain 3 of 2): as the sequence (P26755 whole entry, chain 3 of 2, the tested form may be a part) above

[10] = biological target: RPA-DBD-D-Cy5;Rtt105 (Saccharomyces cerevisiae;Saccharomyces …, UniProt P22336;P26754;P26755;P40063 1-621;1-273;1-122;1-208, |); assay: stopped-flow FRET; with Rtt105; kobs1 0.5, kobs2 48, kobs3 3.6 s-1; EMSA: 25 mM Tris-Cl pH 7.5, 200 mM NaCl, 5 mM MgCl2, 5% glycerol, 0.05% Tween-20, 25 C; anisotropy/FRET: 30 mM HEPES pH 7.8, 100 mM KCl, 6% glycerol, 5 mM MgCl2, 1 mM bME, 23 C (stopped flow 25 C); details: protein: recombinant;recombinant; tags: Cy5 on DBD-D via 4AZP;; copies: 1;1;1;1; label: 3'-Cy3
Sequence of RPA-DBD-D-Cy5;Rtt105 (P26754 whole entry, chain 2 of 2): as the sequence (P26754 whole entry, chain 2 of 2, the tested form may be a part) above
Sequence of RPA-DBD-D-Cy5;Rtt105 (P26755 whole entry, chain 3 of 2): as the sequence (P26755 whole entry, chain 3 of 2, the tested form may be a part) above

[11] = biological target: T2, RPA (RPA70/RPA32/RPA14) (Saccharomyces cerevisiae, UniProt P22336;P26754;P26755 1-621;1-273;1-122); assay: EMSA; no Rtt105; 5 mM MgCl2; stoichiometric, apparent Kd; EMSA: 25 mM Tris-Cl pH 7.5, 200 mM NaCl, 5 mM MgCl2, 5% glycerol, 0.05% Tween-20, 25 C; anisotropy/FRET: 30 mM HEPES pH 7.8, 100 mM KCl, 6% glycerol, 5 mM MgCl2, 1 mM bME, 23 C (stopped flow 25 C); details: protein: recombinant; copies: 1;1;1; label: 5'-Cy5
Target sequence in this assay (P22336 whole entry, chain 1 of 3): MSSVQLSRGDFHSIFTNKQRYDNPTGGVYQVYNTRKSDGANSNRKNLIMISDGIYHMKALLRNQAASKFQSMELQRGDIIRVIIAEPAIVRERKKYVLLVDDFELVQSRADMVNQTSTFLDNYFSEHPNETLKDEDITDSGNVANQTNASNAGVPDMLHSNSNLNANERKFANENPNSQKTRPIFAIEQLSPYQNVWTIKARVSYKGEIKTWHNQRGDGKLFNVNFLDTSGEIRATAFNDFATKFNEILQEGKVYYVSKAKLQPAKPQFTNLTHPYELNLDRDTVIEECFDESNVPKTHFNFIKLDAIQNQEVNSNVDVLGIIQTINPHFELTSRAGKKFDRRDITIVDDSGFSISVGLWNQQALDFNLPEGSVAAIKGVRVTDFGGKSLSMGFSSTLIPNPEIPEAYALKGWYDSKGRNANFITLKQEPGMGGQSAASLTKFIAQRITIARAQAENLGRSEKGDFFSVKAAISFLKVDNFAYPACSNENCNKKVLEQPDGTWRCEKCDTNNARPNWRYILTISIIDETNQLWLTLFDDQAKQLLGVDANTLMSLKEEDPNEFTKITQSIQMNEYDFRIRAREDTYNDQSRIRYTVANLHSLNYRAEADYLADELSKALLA
Target sequence in this assay (P26754 whole entry, chain 2 of 3): as the sequence (P26754 whole entry, chain 2 of 2, the tested form may be a part) above
Target sequence in this assay (P26755 whole entry, chain 3 of 3): as the sequence (P26755 whole entry, chain 3 of 2, the tested form may be a part) above

[12] = biological target: RPA (RPA70/RPA32/RPA14);Rtt105 (Saccharomyces cerevisiae;Saccharomyces …, UniProt P22336;P26754;P26755;P40063 1-621;1-273;1-122;1-208, |); assay: EMSA; Rtt105 premixed 1:1; 5 mM MgCl2; stoichiometric, apparent Kd; EMSA: 25 mM Tris-Cl pH 7.5, 200 mM NaCl, 5 mM MgCl2, 5% glycerol, 0.05% Tween-20, 25 C; anisotropy/FRET: 30 mM HEPES pH 7.8, 100 mM KCl, 6% glycerol, 5 mM MgCl2, 1 mM bME, 23 C (stopped flow 25 C); details: protein: recombinant;recombinant; tags: ;; copies: 1;1;1;1; label: 5'-Cy5
Sequence of RPA (RPA70/RPA32/RPA14);Rtt105 (P22336 whole entry, chain 1 of 4): as the sequence (P22336 whole entry, chain 1 of 3) above
Sequence of RPA (RPA70/RPA32/RPA14);Rtt105 (P26754 whole entry, chain 2 of 4): as the sequence (P26754 whole entry, chain 2 of 2, the tested form may be a part) above
Sequence of RPA (RPA70/RPA32/RPA14);Rtt105 (P26755 whole entry, chain 3 of 4): as the sequence (P26755 whole entry, chain 3 of 2, the tested form may be a part) above
Sequence of RPA (RPA70/RPA32/RPA14);Rtt105 (P40063 whole entry, chain 4 of 4): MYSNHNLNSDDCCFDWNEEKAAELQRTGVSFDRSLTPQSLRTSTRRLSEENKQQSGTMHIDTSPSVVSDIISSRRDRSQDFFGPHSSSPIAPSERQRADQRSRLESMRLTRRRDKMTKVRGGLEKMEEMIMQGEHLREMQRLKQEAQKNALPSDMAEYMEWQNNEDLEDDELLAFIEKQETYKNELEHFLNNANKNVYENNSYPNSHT

[13] = biological target: T2, RPA (RPA70/RPA32/RPA14); assay: competition; facilitated exchange: excess free RPA displaces prebound labeled RPA; EMSA: 25 mM Tris-Cl pH 7.5, 200 mM NaCl, 5 mM MgCl2, 5% glycerol, 0.05% Tween-20, 25 C; anisotropy/FRET: 30 mM HEPES pH 7.8, 100 mM KCl, 6% glycerol, 5 mM MgCl2, 1 mM bME, 23 C (stopped flow 25 C); details: protein: recombinant; copies: 1;1;1
Target sequence in this assay (P26754 whole entry, chain 2 of 2): as the sequence (P26754 whole entry, chain 2 of 2, the tested form may be a part) above
Target sequence in this assay (P26755 whole entry, chain 3 of 2): as the sequence (P26755 whole entry, chain 3 of 2, the tested form may be a part) above

[14] = biological target: B4; assay: other fluorescence titration; MB543 fluorescence quenching; 200 nM fluorescent RPA or F-A-B in the cuvette, unlabeled Rtt105 added stepwise; 23 °C; 30 mM HEPES pH 7.8, 100 mM KCl, 6% glycerol, 5 mM MgCl2, 1 mM βME; quadratic fit, apparent KD; details: both partners purified
[15] = biological target: T1, Replication Protein A (RPA), S. …; assay: cross-linking; BS3 (5 mM) cross-linking of RPA with Rtt105 in 30 mM HEPES, 200 mM KCl, pH 7.8; SDS-PAGE shift and mass spectrometry of cross-linked peptides (XL-MS); details: both partners purified
[16] = biological target: RPA-DBD-A^MB543 (S. cerevisiae) (UniProt P22336); assay: other fluorescence titration; MB543 fluorescence quenching; 200 nM fluorescent RPA or F-A-B in the cuvette, unlabeled Rtt105 added stepwise; 23 °C; 30 mM HEPES pH 7.8, 100 mM KCl, 6% glycerol, 5 mM MgCl2, 1 mM βME; quadratic fit, apparent KD

Binder: TTTTTTTTTTTTTTTTTTTTTTTTT (ssDNA) [5'-FAM-(dT)25]
binding result [1]: binds
binding result [2]: binds

Binder: B1
binding result [3]: binds
t1/2 of dissociation from RPA on ssDNA [4]: 5 s
kobs (single-step model) [5]: 0.2 s⁻¹
kobs,1 (two-step model) [6]: 3.5 s⁻¹
kobs,2 (two-step model) [6]: 0.2 s⁻¹

Binder: TTTTTTTTTTTTTTTTTTTTTTTTTTTTTTTTTTTTTTTT (ssDNA) [5'-Cy3-(dT)40]
binding result [7]: binds
binding result [8]: binds

Binder: TTTTTTTTTTTTTTTTTTTTTTTTTTTTTTTTTTTTTTTT (ssDNA) [3'-Cy3-(dT)40]
binding result [9]: binds
binding result [10]: binds

Binder: TTTTTTTTTTTTTTTTTTTTTTTTTTTTTT (ssDNA) [5'-Cy5-(dT)30]
Kd [11]: 5 ± 0.7 nM
Kd [12]: 5.7 ± 1.2 nM

Binder: B2
binding result [13]: binds

Binder: B3
Kd [14]: 33.9 nM

Binder: B4
binding result [15]: binds
Kd [16]: 61.1 nM
